Assay: yeast display, Sf9 membrane polyspecificity reagent, FACS + sequencing; frameworks hold sequencing errors
Summary of the method: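 In a synthetic yeast display library (Saccharomyces cerevisiae BJ5465), nanobody expression was induced with galactose for 36–48 hours. FACS gates were set low and high (top ~1%) using anti-HA fluorescence for expression and streptavidin fluorescence for binding of the Sf9 membrane reagent. Each polyreactivity label is drawn from the gate of origin.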

| Sequence | polyreactivity (PSR sort gate) |
| --- | --- |
| QVQLVESGGGLVQAGGSLRLSCAASGYIFTGNAMGWYRQAPGKEREFVAAISWSGGSTYYADSVKGRFTISRDNAKNTVYLQMNSLKPEDTAVYDCNKYRPYGRIYHLAYGRDDWGQGTQVTVSS | high polyreactivity |
| QVQLVESGGGLVQAGGSLRLSCAASGYIFTGNAMGWYRQAPGKERELVAAISKSGSRTYYADSVKGRFTISRDNAKNTVYLQMNSLKPEDTAVYYCNAYSARDSELDYWGQGTQVTVSS | high polyreactivity |
| QVQLVESGGGLVQAGGSLRLSCAASGYIFTRNAMGWYRQAPGKERELVAAISRSGGSTYYADSLKGRFTISRDNAKNTVYLQMNSLKPEDTSVYYCAAVDKGRPGRDYWGQGTQVTVSS | low polyreactivity |
| QVQLVESGGGLVQAGGSLRLSCAASGYIFTSYAMGWYRQAPGKERELVATITTGGSTYYADSVKGRFTISRDNAKNTVYLQMNSLKPEDTAVYYCNAVLHGWYDYWGQGTQVTVSS | low polyreactivity |
| QVQLVESGGGLVQAGGSLRLSCAASGYIFTVYAMGWYRQAPGKERELVAAINWSDGSTYYADSVKGRFTISRDNAKNTVYLQMNSLKPEDTAVYYCATEYWYGIYGYDYWGQGTQVSVSS | high polyreactivity |
| QVQLVESGGGLVQAGGSLRLSCAASGYIFTYYAMGWYRQAPGKERELVAAISGSDGNTYYADSVKGRFTISRDNAKNTVYLQMTSLKPEDTAVYYCAKSGGLTFRSQRYDYWGQGTQVTVSS | low polyreactivity |
| QVQLVESGGGLVQAGGSLRLSCAASGYIFVGNAMGWYRQAPGKERELVATIRSSTGNTYADSVKGRFTISRDNAKNTVYLQMNSLKPEDTAVYYCATVYELPGWGREYGYWGQGTQVTVSS | low polyreactivity |
| QVQLVESGGGLVQAGGSLRLSCAASGYIFVSNAMGWNRQEPGKERELVAPISGSGGSTYYADSVKGRFTISRDIAKNTVYLQMNSLKPEDTAVYSCAADYATVTWRGIAYDYWGQGTQVTVSS | low polyreactivity |
| QVQLVESGGGLVQAGGSLRLSCAASGYIFWENAMGWYRQAPGKERELVAAITVSGGGTYYADSVKGRFTISRDNAKNSVYLQMNSLKPEVTAVYYCNVYDKAPAYDYWGQGTQVTVSS | low polyreactivity |
| QVQLVESGGGLVQAGGSLRLSCAASGYIFYANAMGWYRQPPGKERELVAAISWSGGSTYYADSVKGRFTISRDNAKNTVYLQMNSLKPEDTAVYYCAAAYYETPWDYYYWGQGTQVTVSS | low polyreactivity |
| QVQLVESGGGLVQAGGSLRLSCAASGYIFYGYVMGWYRQAPGKERELVAGITYSGGGGTHYADSVKGRFTISRDNAKNTVYLQMNSLKPEDNAVYYCAKADPQLNRTYYSYGMDYWGQGTQVTVSS | low polyreactivity |
| QVQLVESGGGLVQAGGSLRLSCAASGYIFYHNTMGWYRQEPGKERELVAAITIGGRTYYADSVKGRFTISRDNAKNTVYLQMNSLKPEDTAVYYCATASYRNPSDYWGQGTQVSVSS | high polyreactivity |
| QVQLVESGGGLVQAGGSLRLSCAASGYIFYTYAMGCYRQAPGKERELVAGISGSGGSTYYADSVKGRFTISRDNAKNTVYLQMNSLNPEETAVYYCAKDIYQIGYRRYDSWGQGTQVTVSS | low polyreactivity |
| QVQLVESGGGLVQAGGSLRLSCAASGYIFYVYAMGWYRQAPGKERELVAAINSGDITYYADSVKGRFTISRDNAKNTVYLQMNSLKPEDTAVYYCATVLILIYDYWGQGTQVTVSS | low polyreactivity |
| QVQLVESGGGLVQAGGSLRLSCAASGYIFYYYTMGWYRQATGKEREFVAAISYSVGSTYADSVKGRFTISRDNAKNTVYLQMNSLKPEDTAVYYCNAVTIRNVYYSGGYWGQGTQVTVSS | high polyreactivity |
| QVQLVESGGGLVQAGGSLRLSCAASGYIIGGNAMGWYRQAPGKERELVAVISSRGGRTYYADSVKGRFTISRDNAKNTVYLQMNSLKPEDTAVSYCNRDFSYQYKRDYWGQGTQVTVSS | high polyreactivity |
| QVQLVESGGGLVQAGGSLRLSCAASGYIITSNAMGWYRQAPGKERELVAAITYSDGSTYYADSVKGRFTISRDNAKNTVYLQMNSLIPEDTAVYYCAVDRDYNVAVLRDLDYWGQGTQVTVSS | low polyreactivity |
| QVQLVESGGGLVQAGGSLRLSCAASGYISFGYAMGWYRQAPGKEREFVAAISVGGGTTYYADSVKGRFTISRDNAKNTVYLQMNSLKPEDTAVYYCAVGKYNYRGSWDYYWGQGTQVTVSS | high polyreactivity |
| QVQLVESGGGLVQAGGSLRLSCAASGYIVITYAMGRYRQAPGKERELVAAISRRGGRTYYADSVKGRFTISRDNAKNTVYLQMNSLKPEATAVYYCAADPATSVYGGLNYWGQGTQVTVSS | high polyreactivity |
| QVQLVESGGGLVQAGGSLRLSCAASGYNFARYAMGWDRQAPGKEREFVAAITWSGGTTYYADSVKGRFTISRDNAKNTVYLQMNRLKPEDTAVYYCAARGYYTEAASSKRGNYWGQGTQVTVSS | high polyreactivity |
| QVQLVESGGGLVQAGGSLRLSCAASGYNFAYYAMGWYRQAPGTERELVAAISWSGSSTYYADSVKGRFTISRDNAKNTVYLQMNSLKPEDTAVYYCAKGYTSYNLGKYGYCGQGTQVTVSS | low polyreactivity |
| QVQLVESGGGLVQAGGSLRLSCAASGYSFYYYAMVWYRQAPGKERELVAAITSGDSTYADSVKGRFTISRDNAKNTVYLQMNSLKPEDTAVYYCNRDTDYGFDYWGQGTQVTVSS | low polyreactivity |

| Sequence | polyreactivity (PSR sort gate) |
| --- | --- |
| QVQLVESGGGLVQAGGSLRLSCAASGYTFASYTMGWYRQAPGKERELVATISRGGGRTYYADSVKGRFTISRDNAKNTVYLQMNSLKPEDTAVYYCARPSTFYTGYRQAHFDYWGQGTQVTVSS | high polyreactivity |
| QVQLVESGGGLVQAGGSLRLSCAASGYTFDANAMGWYRQAPGKERELVAAIRSGGGLTYYADSVKGRFTISRDNAKNTVYLQMNSLKPEDTAVYYCAAVTRRDSFEYWGQGTQVTVSS | low polyreactivity |
| QVQLVESGGGLVQAGGSLRLSCAASGYTFDAYAMGWYRQAPGKERELVAAISGDSTNYADSVKGRFTISRDNAKNTVYLQMNSLKPEDTAVYYCAAAFWYDYWEKYDYWGQGTQVTVSS | low polyreactivity |
| QVQLVESGGGLVQAGGSLRLSCAASGYTFDAYSMGWYRQAPGKERELVAAITTNGGSTYYADSVKGRFTISRDNAKNTVYLQMNSLKPEDTAVYYCNAEYSYEGRYPYDYWGQGTQVTVSS | low polyreactivity |
| QVQLVESGGGLVQAGGSLRLSCAASGYTFDDYEMGWYRQAPGKERELVAAISRGGSTYYADSVKGRFTISRDNEKNTVYFQMNSLKPEDTAVYYCGAVYRVRKITYDYWGQGTQVTVSS | high polyreactivity |
| QVQLVESGGGLVQAGGSLRLSCAASGYTFDGYAMGRYRQAPGKERELVAAINSGGGTYYADSVKGRFTISRDNAKNTVYLQMNSLKPEDTAVYYCAKYTYDYWGQGTQVTVSS | low polyreactivity |
| QVQLVESGGGLVQAGGSLRLSCAASGYTFDWYAMGWYRQAPGKERELVAAISYSTGSTYYADSVKGRFTISRDNAKNTVYLQMHSLKPEDTAVYYCATRYWRSGYDWPYGSWGQGTQVTVSS | high polyreactivity |
| QVQLVESGGGLVQAGGSLRLSCAASGYTFEYNAMGWYRQATGKEREFVATITASGDSTYYADSVKGRFTISRDNAKNTVYLQMNSLKPEDTAVYYCATEKRDVYFTAKYDYWGQGTQVTVSS | low polyreactivity |
| QVQLVESGGGLVQAGGSLRLSCAASGYTFFRNTMGWYRQAPGKERELVAVITKSGGSTYYADSVKGRFTISRDNAKNTVYLQMNSLKPEDTAVYYCNAVNALRNTEYNYWGQGTQVTVSS | high polyreactivity |
| QVQLVESGGGLVQAGGSLRLSCAASGYTFFRYAMGWYRQAPGKERELVAAISGGGGSTYYADSVKGRFTISRDYAKNTVYLQMNSLKPEDTAVYYCAAESQAYSLYWGQGTQVTVSS | high polyreactivity |
| QVQLVESGGGLVQAGGSLRLSCAASGYTFGLYTMGWYRQAPGKEREFVATIDWSEGGTHYADSVKGRFTISRDIAKISVYLQMNSLKPEYTAVYYCNADWYAYPYGYWGQGTQVTVSS | low polyreactivity |
| QVQLVESGGGLVQAGGSLRLSCAASGYTFGQYAMGWYRQAPGKEREMVAAISSGGGSTYYADSVKGRFTISRDNAKTTVYLQMNSLKPEDTAVYYCAAQYLYPTYRYGYWGQGTQVTVSS | high polyreactivity |
| QVQLVESGGGLVQAGGSLRLSCAASGYTFGSNTMGWYRQAPGKERELVAVITWSGGSTYYADSVKGRFTISRDNAKNTVYLQMNSLKPEDTAVYYCAADATSPLTWFDYWGQGTQVTVSS | low polyreactivity |
| QVQLVESGGGLVQAGGSLRLSCAASGYTFGSYAMGWYRQAPGKERELVAAISGGGSTNYADSVKGRFTISRDNAKNTVYLQMNSLKPEDTAVYYCAADIRWGQGTQVTVSS | low polyreactivity |
| QVQLVESGGGLVQAGGSLRLSCAASGYTFGTYAMGWYRQAPGKERELVAAITTNVGSTYYADSVKGRFTISRDNAKNTVYLQMNSLKPEDTAVYYCAADVGWRFGDITYWAYDYWGQGTQVTVSS | low polyreactivity |
| QVQLVESGGGLVQAGGSLRLSCAASGYTFGTYDMGWYRQAPGNERELGAAISLGGSTNYADSVKGPFTISRDNAKNTVYLQMYSLKPEDTAVYYCAAEVNVGTLLLSVIVEDGDYWGQGTQVTVSS | low polyreactivity |
| QVQLVESGGGLVQAGGSLRLSCAASGYTFGYNAMGWYRQAPGKERELVAAISWNAGSTYYADSVKGRFTISRDNAKNTVYLQMNSLKPEDTAVYYCATEGTYIYNYWGQGTQVTVSS | low polyreactivity |
| QVQLVESGGGLVQAGGSLRLSCAASGYTFGYNAMGWYRQAPGKERELVANITWRGGSTNYADSVKGRFTISRDNAKNTVYLQMNSLKPEDTAVYYCAADRPWYYGRYYYWGQGTQVTVSS | high polyreactivity |
| QVQLVESGGGLVQAGGSLRLSCAASGYTFGYYAMGWYRQAPGKERELVAAINYSGGRTYYADSVKGRFTISRDNAKNTVYLQMNSLKPEDTAVYYCNAKYGGWSKYWFPRDMDYWGQGTQVTVSS | low polyreactivity |
| QVQLVESGGGLVQAGGSLRLSCAASGYTFIHNAMGWYRQAPGKERELVAAINRSGGITNYADSVKGRFTISRDNAKNTVYLQMNSLKPEDTAVYYCNADVDPLPPRYLHREVLKEYNYWGQGTQVTVSS | low polyreactivity |
| QVQLVESGGGLVQAGGSLRLSCAASGYTFKTNDMGWYRPAPGKEREFVAAISAIGGSTYYADSVKGRFTISRDNAKNTVYLQMNSLKPEDTAVYYCAKDKSPYGYATNQYRKYYYWGQGTQVTVSS | low polyreactivity |
